Tests used:
[1] = biological target: T1, MCV trLT and sT (large T and small T antigens of Merkel cell polyomavirus, shared exon 1) peptide on … (human); test: cytokine release
T1 peptide: KLLEIAPNC

[2] = biological target: T2, MCV trLT (truncated large T antigen of Merkel cell polyomavirus) peptide on HLA-A*02:01 (human); test: cytokine release
T2 peptide: SMFDEVDEA

B1: KLL-85 (TCR, V domains shown)
Valpha: GQQLNQSPQSMFIQEGEDVSMNCTSSSIFNTWLWYKQDPGEGPVLLIALYKAGELTSNGRLTAQFGITRKDSFLNISASIPSDVGIYFCAGQLNQGAQKLVFGQGTRLTINP
Vbeta: DAGVIQSPRHEVTEMGQEVTLRCKPISGHNSLFWYRQTMMRGLELLIYFNNNVPIDDSGMPEDRFSAKMPNASFSTLKIQPSEPRDSAVYFCASSFYSADTQYFGPGTRLTVL
B1: recognises [1].

B2: SMF-48 (TCR, V domains shown)
Valpha: AQTVTQSQPEMSVQEAETVTLSCTYDTSESNYYLFWYKQPPSRQMILVIRQEAYKQQNATENRFSVNFQKAAKSFSLKISDSQLGDTAMYFCAFMKRGNRDDKIIFGKGTRLHILP
Vbeta: GAVVSQHPSWVICKSGTSVKIECRSLDFQATTMFWYRQFPKQSLMLMATSNEGSKATYEQGVEKDKFLINHASLTLSTLTVTSAHPEDSSFYICSASPTSGRRTQYFGPGTRLTVL
B2: recognises [2]; no recognition [1].

B3: SMF-72 (TCR, V domains shown)
Valpha: AQTVTQSQPEMSVQEAETVTLSCTYDTSESDYYLFWYKQPPSRQMILVIRQEAYKQQNATENRFSVNFQKAAKSFSLKISDSQLGDAAMYFCAYRGTSGTYKYIFGTGTRLKVLA
Vbeta: DTGVSQDPRHKITKRGQNVTFRCDPISEHNRLYWYRQTLGQGPEFLTYFQNEAQLEKSRLLSDRFSAERPKGSFSTLEIQRTEQGDSAMYLCASSKLAGKNIQYFGAGTRLSVL
B3: recognises [2]; no recognition [1].

Source: patent US20190359677A1 (published 2019)
